According to publication PMC8571082:

B1: factor inhibiting HIF-1 (FIH-1), full-length [human] / Mint3NT, N-terminal fragment (1–214) of Mint3 [human] (parent)
chain 1: MDFPTISRSPSGPPAMDLEGPRDILVPSEDLTPDSQWDPMPGGPGSLSRMELDESSLQELVQQFEALPGDLVGPSPGGAPCPLHIATGHGLASQEIADAHGLLSAEAGRDDLLGLLHCEECPPSQTGPEEPLEPAPRLLQPPEDPDEDSDSPEWVEGASAEQEGSRSSSSSPEPWLETVPLVTPEEPPAGAQSPETLASYPAPQEVPGPCDHED
chain 2: MAATAAEAVASGSGEPREEAGALGPAWDESQLRSYSFPTRPIPRLSQSDPRAEELIENEEPVVLTDTNLVYPALKWDLEYLQENIGNGDFSVYSASTHKFLYYDEKKMANFQNFKPRSNREEMKFHEFVEKLQDIQQRGGEERLYLQQTLNDTVGRKIVMDFLGFNWNWINKQQGKRGWGQLTSNLLLIGMEGNVTPAHYDEQQNFFAQIKGYKRCILFPPDQFECLYPYPVHHPCDRQSQVDFDNPDYERFPNFQNVVGYETVVGPGDVLYIPMYWWHHIESLLNGGITITVNFWYKGAPTPKRIEYPLKAHQKVAIMRNIEKMLGEALGNPQEVGPLLNTMIKGRYN

Variants of: B1
Assay: ITC
Conditions: with Mint3NT, measured three times for each FIH-1 mutant

| Variant | screen value [kcal/mol] |
| --- | --- |
| chain 2 E79A | -28.5 |
| chain 2 Y71A | -28.9 |
| chain 2 N171A | 21.4 |
| chain 2 E29A | 19.5 |
| chain 2 E250A | 20.1 |
| chain 2 D248A | -28.4 |
| chain 2 K75A | 20.2 |
